In article doi:10.1101/333070 one finds stoichiometry N data, which are given here for 1 substance.

The test deals with mouse proNGF (mouse) (UniProt P01139). In words: SAXS.

In general, stoichiometry N refers to the number of molecules, sites or subunits per partner or assembly. “mouse proNGF (from UniProt P01139 19-241) (natural protein)” yielded a stoichiometry N of 2.
